In the assay the target is T1, BCMA expressed on myeloma cells (MM.1R, KMS12-PE) (human, UniProt Q02223 1-184).
T1 construct: Human multiple myeloma cell lines expressing BCMA; also called surface BCMA; MM.1R myeloma cells
T1 sequence: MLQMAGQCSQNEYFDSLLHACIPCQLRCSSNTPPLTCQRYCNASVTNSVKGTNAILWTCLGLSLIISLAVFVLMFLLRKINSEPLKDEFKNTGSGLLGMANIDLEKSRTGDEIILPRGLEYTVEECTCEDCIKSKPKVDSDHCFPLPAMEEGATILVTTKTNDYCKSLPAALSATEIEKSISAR
Nature of the assay: flow cytometry on MM.1R cells. As for the experimental part:
F4-TriNKETs were diluted, and were incubated with MM.1R cells. […] Cells were analyzed by flow cytometry, binding MFI to cell expressed BCMA was normalized to secondary antibody controls to obtain fold over background values.
On the technique in general: In flow cytometry, cells or beads pass a laser one at a time.

B1: A49-F4-TriNKET-BCMA (bispecific antibody, V domains shown)
VH 1: EVQLLESGGGLVQPGGSLRLSCAASGFTFSDNAMGWVRQAPGKGLEWVSAISGPGSSTYYADSVKGRFTISRDNSKNTLYLQMNSLRAEDTAVYYCAKVLGWFDYWGQGTLVTVSS
VL 1: EIVLTQSPGTLSLSPGERATLSCRASQSVSDEYLSWYQQKPGQAPRLLIHSASTRATGIPDRFSGSGSGTDFTLAISRLEPEDFAVYYCQQYGYPPDFTFGQGTKVEIK
VH 2: EVQLVESGGGLVKPGGSLRLSCAASGFTFSSYSMNWVRQAPGKGLEWVSSISSSSSYIYYADSVKGRFTISRDNAKNSLYLQMNSLRAEDTAVYYCARGAPMGAAAGWFDPWGQGTLVTVSS
VL 2: DIQMTQSPSSVSASVGDRVTITCRASQGISSWLAWYQQKPGKAPKLLIYAASSLQSGVPSRFSGSGSGTDFTLTISSLQPEDFATYYCQQGVSFPRTFGGGTKVEIK
notes: Only variable domains can be tied to the molecule
Take B1: the binding result is given as “binds”.

B2: BCMA monoclonal antibody (EM-901) (antibody, V domains shown)
VH: EVQLLESGGGLVQPGGSLRLSCAASGFTFSDNAMGWVRQAPGKGLEWVSAISGPGSSTYYADSVKGRFTISRDNSKNTLYLQMNSLRAEDTAVYYCAKVLGWFDYWGQGTLVTVSS
VL: EIVLTQSPGTLSLSPGERATLSCRASQSVSDEYLSWYQQKPGQAPRLLIHSASTRATGIPDRFSGSGSGTDFTLAISRLEPEDFAVYYCQQYGYPPDFTFGQGTKVEIK
As to B2, the binding result is “binds”.
